Changes are numbered by the printed parent chain.
B1: PD1-62E1 (antibody, V domains shown)
VH: QVQLVESGGDLVKPGRSLRLSCTGSGFTFGDHPLTWVRQIPGKGLEWVGFIRSKAYGETTEYAASVKGRFTISRDDSKSIAYLQMNSLRAEDTAVYYCASVSYCSGGSCYQGTFDYWGQGTLVTVSS
VL: DIQMTQSPAILSLSPGERATLSCRASQSVTSDVAWYQHIRGQAPRLLIYDASNRASGIPARFSGGGSGTEFTLTISSLEPEDFAVYYCQQYNNWPLTFGGGTKVEIK
B2: PD1-49A2(A/2B9) (antibody, V domains shown)
VH: QVQLVESGGGVVQPGRSLRLSCAASGFTFLRYAMHWVRQAPGKGLEWVAVISYDGRYKYYADSVKGRFTISRDNSKNTLYLQMNSLRAEDTAVYYCTTTTFDSWGQGTLVTVSS
VL: DIVMTQTPLSLPVTPGEAASISCRSSQSLLDSEDGNTYLDWYLQKPGQSPQLLIYTLSHRASGVPDRFSGSGSGTDFTLEISRVEAEDVGVYYCMQRRDFPFTFGQGTKVDIK
notes: scFv-phage in the screening ELISA; whole IgG in the other assays; also called 49A2-2B9; 49A2 (2B9)
B3: PD1-45D6(A/5B2) (antibody, V domains shown)
VH: B2 VH with L30S, R31F, R56N, Y57D, T97V, T98P, D102E, S103Y
VL: B2 VL with L11P, A18P, E33D, V110L
notes: scFv-phage in the screening ELISA; whole IgG in the other assays; also called 45D6-5B2; PD1 45D6 5B2
B4: PD1-45D6(A/3H7) (antibody, V domains shown)
VH: QVQLVESGGGVVQPGRSLRLSCAASGFTFSSYAMHWVRQVPGKGLEWVAVISYDGNDKYYADSVKGRFTISRDNSKNTLYLQMNSLRAEDTAVYYCVPTTFEYWGQGSQVTVSS
VL: DIVMTQTPLSLPVTPGEPASISCRSSQSLLDSDDGNTYLDWYLQKPGQSPQLLIYTLSHRASGVPGRFSGSGSGTEFNLRISRVEAEDVGIYYCMQRVEFPFTFGQGTKLEIK
notes: scFv-phage in the screening ELISA; whole IgG in the other assays; also called 45D6-3H7; PD1 45D6 3H7
B5: PD1-49A2(A/2A6) (antibody, V domains shown)
VH: B2 VH with L30K, R31Y, A49T, R56Q
VL: B4 VL with P18A, D33E, K45R, L110V
notes: scFv-phage in the screening ELISA; whole IgG in the other assays; also called 49A2-2A6; PD1 49A2 2A6
B6: PD1-45D6(A/3D2) (antibody, V domains shown)
VH: B4 VH
VL: B2 VL with E80K, V91I, R98V, D99E, D111E
notes: scFv-phage in the screening ELISA; whole IgG in the other assays; also called 45D6-3D2; PD1 45D6 3D2
B7: PD1-45D6(A/5B5) (antibody, V domains shown)
VH: B4 VH with S30R, S31T, V40A, S108T, Q109L
VL: B2 VL with T14M, E80K, E87D, V91I, R98V, D99E, D111E
notes: scFv-phage in the screening ELISA; whole IgG in the other assays; also called 45D6-5B5; PD1 45D6 5B5
B8: PD1-49A2(A/1B2) (antibody, V domains shown)
VH: B2 VH with R56Q, Y57D, Q106R
VL: B4 VL with G66D
notes: scFv-phage in the screening ELISA; whole IgG in the other assays; also called 49A2-1B2; PD1 49A2 1B2
B9: PD1-49A2(A/1H8) (antibody, V domains shown)
VH: B2 VH with L30K, R31T, R56Q, Y57H
VL: DIVMTQTPLSLPVTPGEPASISCRSSQSLLDRDGGHTYVDWYLQKPGQSPRLLIYTLSHRALGVPDRFSGSGSGTDFTLKISRVEADDVGLYYCMQRIEFPFTFGQGTKVEIK
notes: scFv-phage in the screening ELISA; whole IgG in the other assays; also called 49A2-1H8; PD1 49A2 1H8
B10: mPDL2-mFC (Fc fusion, mouse (prefix m on the sheet), UniProt Q9WUL5 20-221, looked up)
ligand fused to Fc: LFTVTAPKEVYTVDVGSSVSLECDFDRRECTELEGIRASLQKVENDTSLQSERATLLEEQLPLGKALFHIPSVQVRDSGQYRCLVICGAAWDYKYLTVKVKASYMRIDTRILEVPGTGEVQLTCQARGYPLAEVSWQNVSVPANTSHIRTPEGLYQVTSVLRLKPQPSRNFSCMFWNAHMKELTSAIIDPLSRMEPKVPRTW
notes: mFC fusion

The binders below were run against T1, PD1-hFc (human, UniProt Q15116 25-170) (assay: competition ELISA: PD1-Fc coated, PDL1-His as binder, antibody as competitor).
T1 construct: extracellular domain; also called PD1-hFc protein; Human PD-1-Fc (S1420, Y-Biologics)
Method: (§1) Human PD-1-Fc (S1420, Y-Biologics) or PD-L2-Fc (#10292-H02H, Sino) was added to wells of a 96-well immuno microplate (#439454, Thermo) and then washed three times with PBS containing 0.05% tween-20 (#P9416, Sigma-Aldrich), followed by allowing to stand in a cleaning solution containing 4% skim milk (#232120, Becton, Dickinson and Company) at room temperature for 1 hour to block non-specific binding. […] After the resulting product was subjected to the same washing method as above, the anti-Biotin-His antibody (#MA1-21315-BTIN, Thermo) diluted to 1:2000 was added to the well of the microplate, allowed to react at room temperature for 1 hour, streptavidin poly-HRP antibody (#21140, Pierce) diluted to 1:5000 was added to the well of microplate, reacted at room temperature for 1 hour and then washed in the same manner. 100 ul of a TMB substrate solution (#T0440, Sigma-Aldrich) was added to the reaction product, light was shielded, and the reaction product was allowed to stand at room temperature for 3 minutes, 50 μL of 2.5 M sulfuric acid (#S1478, Samchun) was added to stop the reaction, and absorbance was measured at 450 nm using a spectrophotometer (*GM3000, Glomax® Discover System Promega).
Work on B1 yielded an IC50 of 2.89 nM.
B2 showed an IC50 of 6.38 nM.
B3 was tested, and the IC50 was 3.09 nM.

Each binder was assayed against T2, human PD-1 (NM_005018.2) over-expressed on cells (human, UniProt Q15116 25-288) (assay: cell-based or functional assay).
With B4 the “EC50 [nM], PD1/PD-L1 blockade bioassay” value was 1.98 nM.
In the case of B5, the “EC50 [nM], PD1/PD-L1 blockade bioassay” value is reported as 1.51 nM.
For B6, the “EC50 [nM], PD1/PD-L1 blockade bioassay” value was 2.16 nM.
B7 was tested, and the “EC50 [nM], PD1/PD-L1 blockade bioassay” value was 1.68 nM.
B8 was tested, and the “EC50 [nM], PD1/PD-L1 blockade bioassay” value was 1.3 nM.
With B1 the “EC50 [nM], PD1/PD-L1 blockade bioassay” value was 2.73 nM.
For B2, the “EC50 [nM], PD1/PD-L1 blockade bioassay” value was 1.23 nM.
In the case of B9, the “EC50 [nM], PD1/PD-L1 blockade bioassay” value is reported as 1.21 nM.
B3 was tested, and the “EC50 [nM], PD1/PD-L1 blockade bioassay” value was 1.48 nM.

The binders below were run against T3, monkey PD1 protein (monkey) (assay: SPR ProteOn XPR36; format for monkey PD1 not described).
T3 construct: also called monkey PD-1 proteins
B2 showed a Kd of 0.001 nM, a koff of 1e-07 s⁻¹ and a kon of 185000 M⁻¹ s⁻¹.
B3 was tested, and the kon was 208000 M⁻¹ s⁻¹.

Target: T2, human PD-1 (NM_005018.2) over-expressed …
Test: cell-based or functional assay
Remark: another data set of the same source
B4 showed an EC50 of 1.64 nM.
B5 showed an EC50 of 1.67 nM.
Work on B6 yielded an EC50 of 2 nM.
In the case of B7, the EC50 is reported as 0.906 nM.
Binder B8 has an EC50 of 2.03 nM.
B2 was tested, and the EC50 was 0.689 nM.
B9 gave an EC50 of 1.45 nM.
With B3 the EC50 was 1.66 nM.

These binders were tested against T2, human PD-1 (NM_005018.2) over-expressed … (assay: flow cytometry on cells over-expressing human PD-1, fit of Geometric Mean).
B2 showed a Bmax of 2900 and a Kd of 6.2 nM.

What follows are binders tested against T1, PD1-hFc (assay: SPR ProteOn XPR36, PD1-hFc immobilised, antibody as analyte).
Method: A ProteOn XPR36 (BioRad) instrument was used. The GLC sensor chip (BioRad) was mounted on the instrument and washed with PBST buffer, and the carboxymethyldextran surface was activated with an EDC/sulfo-NHS mixed solution. PD1-hFc dissolved at a concentration of 5 ug/ml in a 10 mM sodium acetate buffer solution (pH 5.0) was injected and immobilized on the GLC sensor chip.
In order to deactivate the activated carboxyl groups that remain unreacted with the PD1 protein, 1 M ethanolamine was flowed and 10 mM glycine (pH 2.0) was injected in order to wash proteins that remain unbound to the sensor chip.
The equilibrium dissociation constant (KD) was calculated by plotting and fitting the sensogram data in the equilibrium state depending on concentration.
Work on B4 yielded a Kd of 0.0253 nM, a koff of 7.78e-06 s⁻¹ and a kon of 308000 M⁻¹ s⁻¹.
Work on B5 yielded a Kd of 0.0691 nM, a koff of 2.14e-05 s⁻¹ and a kon of 310000 M⁻¹ s⁻¹.
B6 showed a Kd of no more than 0.001 nM, a koff of no more than 1e-07 s⁻¹ and a kon of 181000 M⁻¹ s⁻¹.
Work on B7 yielded a Kd of 0.0477 nM, a koff of 1.41e-05 s⁻¹ and a kon of 296000 M⁻¹ s⁻¹.
Binder B8 has a Kd of 0.166 nM, a koff of 6.39e-05 s⁻¹ and a kon of 385000 M⁻¹ s⁻¹.
Binder B2 has a kon of 377000 M⁻¹ s⁻¹.
B9 gave a Kd of 0.0124 nM, a koff of 2.74e-06 s⁻¹ and a kon of 220000 M⁻¹ s⁻¹.
B3 was tested, and the Kd was 0.0582 nM, the koff was 1.93e-05 s⁻¹ and the kon was 332000 M⁻¹ s⁻¹.

The binders below were run against T4, PD-1-His (S1352, Y-Biologics) (UniProt Q15116 25-170, limits assumed) (assay: competition ELISA: PD-L2-Fc coated, PD-1-His as binder, antibody as competitor).
T4 construct: not shown: His tag
Method: as §1
Work on B1 yielded an IC50 of 314 nM.
Work on B2 yielded an IC50 of 59 nM.
For B3, the IC50 was 75.4 nM.

These binders were tested against T1, PD1-hFc (assay: ProteOn XPR36; legend names PD1-hFc, the sheet names the immobilised protein PD-1 C-his).
B2 was tested, and the Kd was less than 0.001 nM and the koff was less than 1e-07 s⁻¹.

Each binder was assayed against T5, rat PD1 protein (rat, UniProt D3ZIN8 25-169) (assay: SPR ProteOn XPR36; format for rat PD1 not described).
T5 construct: also called rat PD-1 proteins
T5 sequence: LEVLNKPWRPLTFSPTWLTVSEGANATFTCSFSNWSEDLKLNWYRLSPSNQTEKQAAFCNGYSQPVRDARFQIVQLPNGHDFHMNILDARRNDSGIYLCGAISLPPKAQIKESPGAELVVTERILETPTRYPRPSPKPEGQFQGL
For B2, the Kd was 4.23 nM, the koff was 0.000625 s⁻¹ and the kon was 148000 M⁻¹ s⁻¹.
B3 was tested, and the Kd was 4.59 nM, the koff was 0.000863 s⁻¹ and the kon was 188000 M⁻¹ s⁻¹.

These binders were tested against T6, M7 (assay: ELISA, 1 ug/ml).
T6 construct: also called PD1 mutant M7
B2 gave an OD490 of 0.083.
Binder B3 has an OD490 of 0.238.

The binders below were run against T7, M11 (assay: ELISA, 1 ug/ml).
T7 construct: also called PD1 mutant M11
B10 showed an OD490 of 1.7.
B2 showed an OD490 of 0.433.
B3 gave an OD490 of 0.446.

The binders below were run against T8, ITGA6-Fc (assay: ELISA, 1 ug/ml).
T8 construct: Fc fusion
T8 sequence (P23229 whole entry, species assumed, looked up): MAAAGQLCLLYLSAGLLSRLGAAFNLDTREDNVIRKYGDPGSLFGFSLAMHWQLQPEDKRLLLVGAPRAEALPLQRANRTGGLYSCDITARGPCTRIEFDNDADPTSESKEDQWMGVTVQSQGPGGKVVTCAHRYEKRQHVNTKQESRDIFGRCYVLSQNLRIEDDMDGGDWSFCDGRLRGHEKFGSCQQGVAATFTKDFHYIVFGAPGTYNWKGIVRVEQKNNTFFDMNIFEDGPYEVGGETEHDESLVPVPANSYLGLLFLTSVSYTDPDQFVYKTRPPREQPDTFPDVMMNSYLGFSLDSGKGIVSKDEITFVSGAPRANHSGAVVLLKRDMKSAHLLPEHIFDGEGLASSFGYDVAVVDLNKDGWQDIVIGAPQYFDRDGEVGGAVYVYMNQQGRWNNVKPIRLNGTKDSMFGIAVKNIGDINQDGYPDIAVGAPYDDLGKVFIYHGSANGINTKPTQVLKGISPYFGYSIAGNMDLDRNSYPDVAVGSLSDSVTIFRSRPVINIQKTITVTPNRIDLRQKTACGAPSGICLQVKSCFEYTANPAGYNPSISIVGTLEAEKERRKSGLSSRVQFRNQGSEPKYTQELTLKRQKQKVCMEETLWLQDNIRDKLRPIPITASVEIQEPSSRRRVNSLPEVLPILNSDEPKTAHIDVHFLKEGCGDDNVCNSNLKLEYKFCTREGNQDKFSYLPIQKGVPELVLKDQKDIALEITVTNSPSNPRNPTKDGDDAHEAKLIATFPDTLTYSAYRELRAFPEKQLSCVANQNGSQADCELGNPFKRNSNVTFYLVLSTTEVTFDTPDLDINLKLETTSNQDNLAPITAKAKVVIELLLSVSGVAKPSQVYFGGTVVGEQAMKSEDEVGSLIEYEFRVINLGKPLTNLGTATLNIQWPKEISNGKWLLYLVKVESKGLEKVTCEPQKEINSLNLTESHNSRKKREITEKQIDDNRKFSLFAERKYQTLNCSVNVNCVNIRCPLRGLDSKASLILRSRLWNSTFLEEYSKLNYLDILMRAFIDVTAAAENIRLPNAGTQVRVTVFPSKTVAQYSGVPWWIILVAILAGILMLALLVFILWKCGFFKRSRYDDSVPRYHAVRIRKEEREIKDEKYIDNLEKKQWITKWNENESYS
With B10 the OD490 was 0.3.
In the case of B2, the OD490 is reported as 0.1.
Binder B3 has an OD490 of 0.124.
